In patent US20160194407A1:
One block for each binder: values may come before it.

Target: T1, recombinant murine CD73 protein (form not stated) (murine) (UniProt Q61503)
T1 sequence (looked up): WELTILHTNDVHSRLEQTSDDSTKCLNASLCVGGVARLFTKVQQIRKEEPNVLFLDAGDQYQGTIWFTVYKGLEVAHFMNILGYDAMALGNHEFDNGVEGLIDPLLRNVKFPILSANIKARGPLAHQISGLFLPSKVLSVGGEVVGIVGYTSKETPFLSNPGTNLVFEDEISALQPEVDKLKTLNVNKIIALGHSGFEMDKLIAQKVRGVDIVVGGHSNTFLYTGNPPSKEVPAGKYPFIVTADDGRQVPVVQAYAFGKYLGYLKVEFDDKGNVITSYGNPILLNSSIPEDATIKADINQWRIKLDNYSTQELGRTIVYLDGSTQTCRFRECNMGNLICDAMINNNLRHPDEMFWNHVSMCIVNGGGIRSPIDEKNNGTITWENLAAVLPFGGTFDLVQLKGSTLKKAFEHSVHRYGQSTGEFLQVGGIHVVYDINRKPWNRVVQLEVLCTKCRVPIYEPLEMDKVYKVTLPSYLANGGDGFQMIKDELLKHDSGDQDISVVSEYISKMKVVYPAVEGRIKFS
Assay: Binding, Mouse; assay not described

1/EC50: 0 nM⁻¹
B1: CD730042 antibody (antibody, IgG1, V domains shown)
VH: GVQLVQSGGGLVQPGGSLRLSCAASGFTFSSYGMHWVRQAPGKGLEWVAVISYDGSIKYYADSVKGRFTISRDDSKNALYLQMNSLRAEDTAVYYCSTLSGSYGYFDYWGRGTLVTVSS
VL: QSVLTQPASVSGSPGQSITISCAGTSSDVGGYNYVSWYQQHPGKAPKLMIYEGSKRPSGVSNRFSGSKSGNTASLTISGLQAEDEADYYCSSYTTRSTRVFGGGTKLTVL

1/EC50: 0 nM⁻¹
B2: CD730047 antibody (antibody, IgG1, V domains shown)
VH: EVQLVQSGGGVVQPGRSLRLSCAASGFTFSSYGMHWVRQAPGKGLEWVAVISYDGSIKYYADSVKGRFAISRDNAKNTLYLQMNSLRREDTAMYYCASGLTGVAGALGVWGRGTLVTVSS
VL: QSVLTQPPSASGAPGQRVTISCSGSSSNIGSNTVNWYQRLPGAAPQLLIYNNDQRPSGIPDRFSGSKSGTSGSLVISGLQSEDEADYYCAAWDDSLSGNVFGTGTKVTVL
